Test results as given in the supplement of paper PMC7877785.
± gives the uncertainty stated by the source.

Experiment: self-splicing fitness, log relative to wild type (ln ratio); higher = more splicing; Tetrahymena group I intron in knt gene, E. coli kanamycin selection, DiMSum; sequences stand for … in CUCUCU…GGAGGGAAAAGUUAUCAGGCAUGCACCUGGUAGCUAGUCUUUAAACCAAUAGAUUGCAUCGGUUUAAAAGGCAAGACCGUCAAAUUGCGGGAAAGGGGUCAACAGCCGUUCAGUACCAAGUCUCAGGGGAAACUUUGAGAUGGCCUUGCAAAGGGUAUGGUAAUAAGCUGACGGACAUGGUCCUAACCACGCAGCCAAGUCCUAAGUCAACAGAUCUUCUGUUGAUAUGGAUGCAGUUCACAGACUAAAUGUCGGUCGGGGAAGAUGUAUUCUUCUCAUAAGAUAUAGUCGGACCUCUCCUUAAUGGGAGCUAGCGGAUGAAGUGAUGCAACACUGGAGCCGCUGGGAACUAAUUUGUAUGCGAAAGUAUAUUGAUUAGUUUUGGAGUACUCGUGGUCG
How it was run: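 Colonies from six replicate transformations of E. coli BL21(DE3) were pooled and amplicon-sequenced on an Illumina HiSeq 2500. The library placed an intron with all eight P1ex-region nucleotides randomised inside the knt kanamycin-resistance gene on pET-22b(+), and cells grew overnight at 37°C or 30°C on LB agar with or without 25 μg/mL kanamycin (plus 100 μg/mL carbenicillin, 50 μM IPTG, 0.2% rhamnose). Fitness is the DiMSum error-weighted combination of wild-type-normalised replicate fold changes, kanamycin versus none.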

Row | Sequence | self-splicing fitness (ln) (30 °C) | self-splicing fitness (ln) (37 °C)
1 | GUGAAGCAAUAUUACGGUUU | -2.86 ± 0.084 | -0.906 ± 0.11
2 | UGUAAGCAAUAUUACGGAGA | -2.88 ± 0.32 | -1.97 ± 0.42
3 | AAUGAGCAAUAUUACGUUGU | -3.73 ± 0.14 | -2.89 ± 0.16
4 | AGCCAGCAAUAUUACGAUCU | -0.174 ± 0.11 | 0.256 ± 0.1
5 | CCCGAGCAAUAUUACGCCGG | -3.9 ± 0.37 | -2.23 ± 0.34
6 | UAGGAGCAAUAUUACGUACA | -2.47 ± 0.22 | -0.906 ± 0.18
7 | UACAAGCAAUAUUACGAUAG | -2.16 ± 0.093 | -0.848 ± 0.089
8 | AGCAAGCAAUAUUACGUCUA | -0.673 ± 0.062 | -0.456 ± 0.08
9 | CAAAAGCAAUAUUACGAAUC | -4.86 ± 0.38 | -2.71 ± 0.21
10 | UAGCAGCAAUAUUACGUAAA | -1.73 ± 0.099 | -1.32 ± 0.13
11 | CUAUAGCAAUAUUACGCUGU | -3.72 ± 0.26 | -1.29 ± 0.22
12 | GUCGAGCAAUAUUACGUGAA | -1.6 ± 0.12 | -1.86 ± 0.17
13 | AGACAGCAAUAUUACGGGGG | -3.63 ± 0.26 | -2.79 ± 0.23
14 | CCGCAGCAAUAUUACGCUUA | -3.07 ± 0.17 | -2.9 ± 0.25
15 | ACUGAGCAAUAUUACGGUCG | -3.49 ± 0.16 | -1.46 ± 0.16
16 | ACUAAGCAAUAUUACGGAAG | -2.59 ± 0.13 | -1.55 ± 0.15
17 | UCGGAGCAAUAUUACGGCUC | -1.81 ± 0.29 | –
18 | AAAGAGCAAUAUUACGAGGG | -3.04 ± 0.27 | -2.34 ± 0.39
19 | ACUUAGCAAUAUUACGGCAG | -1.6 ± 0.092 | -0.759 ± 0.12
20 | CUGUAGCAAUAUUACGGCCU | – | -3.02 ± 0.34
21 | UCGUAGCAAUAUUACGUUCG | -1.45 ± 0.071 | -0.735 ± 0.086
22 | CGUCAGCAAUAUUACGGCUA | -0.938 ± 0.11 | -0.751 ± 0.11
23 | GCUCAGCAAUAUUACGCAGC | -2.98 ± 0.35 | -2.67 ± 0.44
24 | CACGAGCAAUAUUACGUUCA | -2.99 ± 0.18 | -2.49 ± 0.24
25 | CCGUAGCAAUAUUACGUCCG | 0.211 ± 0.094 | 0.319 ± 0.11
26 | GUGAAGCAAUAUUACGAACU | -2.15 ± 0.1 | -0.516 ± 0.095

Row | Sequence | self-splicing fitness (ln) (30 °C) | self-splicing fitness (ln) (37 °C)
27 | GGAGAGCAAUAUUACGGAGA | -2.3 ± 0.29 | –
28 | UGUCAGCAAUAUUACGUGGU | -4.15 ± 0.18 | -1.96 ± 0.11
29 | AGCAAGCAAUAUUACGCCCG | -0.279 ± 0.08 | -0.0697 ± 0.11
30 | UGUGAGCAAUAUUACGCCUG | -1.48 ± 0.16 | -1.05 ± 0.16
31 | CGUGAGCAAUAUUACGGGAC | – | -1.88 ± 0.41
32 | GAAGAGCAAUAUUACGACCU | -1.45 ± 0.13 | -0.296 ± 0.18
33 | CACCAGCAAUAUUACGUUGG | -4.24 ± 0.13 | -2.74 ± 0.13
34 | GUUCAGCAAUAUUACGUGAU | -0.367 ± 0.049 | 0.43 ± 0.068
35 | UGUCAGCAAUAUUACGCUCC | -0.598 ± 0.29 | -1.2 ± 0.34
36 | CAAUAGCAAUAUUACGUCGC | -4.1 ± 0.36 | -2.56 ± 0.29
37 | GGAGAGCAAUAUUACGCGCA | -1.36 ± 0.19 | -0.414 ± 0.21
38 | GCUAAGCAAUAUUACGGGGG | -3.45 ± 0.28 | -1.89 ± 0.22
39 | CUAGAGCAAUAUUACGCAAA | -2.62 ± 0.27 | -1.27 ± 0.4
40 | UCUCAGCAAUAUUACGUCAG | -3.54 ± 0.25 | -3.16 ± 0.27
41 | UUGGAGCAAUAUUACGUUUA | -2.44 ± 0.44 | –
42 | AGCAAGCAAUAUUACGUAUU | -3.02 ± 0.14 | -1.24 ± 0.11
43 | CAGUAGCAAUAUUACGUUCA | -0.986 ± 0.14 | -2.31 ± 0.23
44 | CCUGAGCAAUAUUACGUUCA | -3.2 ± 0.43 | -2.59 ± 0.32
45 | GGGAAGCAAUAUUACGAACU | -2.22 ± 0.26 | 1.13 ± 0.33
46 | GCGUAGCAAUAUUACGAAGG | – | -2.27 ± 0.5
47 | CAACAGCAAUAUUACGUCUA | -1.06 ± 0.053 | -0.786 ± 0.055
48 | AAAGAGCAAUAUUACGCGUG | -3.02 ± 0.14 | -1.79 ± 0.12
49 | UGCAAGCAAUAUUACGUGUA | -1.96 ± 0.073 | -1.35 ± 0.084
50 | UGGCAGCAAUAUUACGCCGA | -0.136 ± 0.092 | 0.134 ± 0.1
51 | CCGUAGCAAUAUUACGAAGA | -3.8 ± 0.35 | -2.08 ± 0.24
52 | GCCGAGCAAUAUUACGACUU | -1.04 ± 0.31 | -0.625 ± 0.34

Row | Sequence | self-splicing fitness (ln) (30 °C) | self-splicing fitness (ln) (37 °C)
53 | CUCCAGCAAUAUUACGUACU | -3.3 ± 0.29 | -3.21 ± 0.28
54 | GGGCAGCAAUAUUACGCAGA | -1.43 ± 0.095 | -0.514 ± 0.1
55 | CUUGAGCAAUAUUACGUGAG | -2.89 ± 0.12 | -1.28 ± 0.12
56 | CGGAAGCAAUAUUACGGUAC | -3.17 ± 0.27 | -1.93 ± 0.25
57 | CGUUAGCAAUAUUACGUUUG | -1.01 ± 0.08 | -0.558 ± 0.1
58 | AGGGAGCAAUAUUACGUUCC | – | -2.63 ± 0.48
59 | UUAAAGCAAUAUUACGUCCA | -0.0955 ± 0.086 | 0.343 ± 0.11
60 | CCUGAGCAAUAUUACGUAUU | -2.38 ± 0.16 | -2.98 ± 0.21
61 | GACAAGCAAUAUUACGAGCA | -1.12 ± 0.093 | -0.355 ± 0.092
62 | UAGCAGCAAUAUUACGUUUU | -2.6 ± 0.12 | -2.31 ± 0.19
63 | GGCCAGCAAUAUUACGCUAG | -3.21 ± 0.21 | -2.47 ± 0.3
64 | AGCAAGCAAUAUUACGCUCU | -3 ± 0.22 | -1.57 ± 0.17
65 | CAGGAGCAAUAUUACGGGCC | -3.76 ± 0.42 | –
66 | UAAAAGCAAUAUUACGAUAU | -2.59 ± 0.1 | -0.953 ± 0.1
67 | ACUGAGCAAUAUUACGGUGA | -2.02 ± 0.13 | -3.65 ± 0.24
68 | CAAUAGCAAUAUUACGAGAU | -2.72 ± 0.12 | -2.82 ± 0.17
69 | CGGAAGCAAUAUUACGUGUC | -3.44 ± 0.28 | -1.94 ± 0.31
70 | CUUAAGCAAUAUUACGACGA | -3.58 ± 0.25 | -2.61 ± 0.23
71 | UUCUAGCAAUAUUACGGGUU | -2.34 ± 0.17 | -1.93 ± 0.24
72 | GCUAAGCAAUAUUACGGGGC | -4.76 ± 0.38 | -2.87 ± 0.28
73 | GAAGAGCAAUAUUACGCCGC | -2.05 ± 0.47 | –
74 | CUUUAGCAAUAUUACGUAGA | -2.52 ± 0.22 | -2.53 ± 0.33
75 | AGUUAGCAAUAUUACGUUUU | -3.11 ± 0.18 | -1.41 ± 0.15
76 | AUCGAGCAAUAUUACGCCCC | -2.24 ± 0.44 | –
77 | UUCGAGCAAUAUUACGUAGG | -2.9 ± 0.2 | -1.52 ± 0.19
78 | UGAGAGCAAUAUUACGAAAU | -2.66 ± 0.22 | -1.75 ± 0.32
